Source: US20100068218A1

How the values were obtained:
[1] = biological target: HLA-A*0101 (human); experiment: peptide-HLA binding inhibition assay
[2] = biological target: HLA-A*2402 (human); experiment: peptide-HLA binding inhibition assay

| Binder | IC50 [1] | IC50 [2] |
| --- | --- | --- |
| LTFGRETVLEY (modifications not checked) [HBV core 137 epitope …] | 80 nM | – |
| YSLNFMGY (modifications not checked) [HBV pol 580 epitope YSLNFMGY] | 382 nM | – |
| GYPALMPLY (modifications not checked) [HBV pol 639 epitope …] | – | 280 nM |
| SFCGSPYSW (modifications not checked) [HBV pol 167 epitope …] | – | 146 nM |
| RFSWLSLLVPF (modifications not checked) [HBV env 332 epitope …] | – | 12 nM |
| LWFHISCLTF (modifications not checked) [HBV core 101 epitope …] | – | 6.7 nM |
